Experimental data as given in PMC4275180.

What was measured:
[1] = biological target: Stat1 (UniProt P42224); experiment: FLAG co-IP, western blot; conditions: reference: wild type FLAG-KDM3A; sites S264
[2] = biological target: Stat1 (UniProt P42224); experiment: GST pull-down after in vitro kinase reaction; conditions: reference: His-KDM3A(1-394) not phosphorylated by MSK1; sites S264

Row | binding against the reference [1] | binding against the reference [2] | Substance
1 | lost |  | KDM3A (from UniProt Q9Y4C1) S264A
2 |  | gained | KDM3A 1-394 (from UniProt Q9Y4C1) His-KDM3A(1-394) phosphorylated by recombinant MSK1
